B1: Annexin V: recombinant, purified annexin V (BD Biosciences); binds to PS (protein, UniProt P08758 2-320, looked up)
Annexin A5: AQVLRGTVTDFPGFDERADAETLRKAMKGLGTDEESILTLLTSRSNAQRQEISAAFKTLFGRDLLDDLKSELTGKFEKLIVALMKPSRLYDAYELKHALKGAGTNEKVLTEIIASRTPEELRAIKQVYEEEYGSSLEDDVVGDTSGYYQRMLVVLLQANRDPDAGIDEAQVEQDAQALFQAGELKWGTDEEKFITIFGTRSVSHLRKVFDKYMTISGFQIEETIDRETSGNLEQLLLAVVKSIRSIPAYLAETLYYAMKGAGTDDHTLIRVMVSRSEIDLFNIRKEFRKNFATSLYSMIKGDTSGDYKKALLLLCGEDD

Tests used:
[1] = tested on: RBC adhesion in SCD; conditions: treatment by hydroxyurea, ref. [32]; cited from earlier work
[2] = tested on: adhesion of red blood cells (RBCs) from patients with central retinal vein occlusion to human microvascular endothelial cells (HMEC-1); test: RBC adhesion to HMEC under static conditions (radiometric 51Cr technique), inhibition by antibodies, peptide or annexin V; assay type: cell-based
Method: (§1) Blood samples were tested after storage at −196° C. as previously described. For the first 10 patients, RBC adhesion (on three occasions, n=30) was measured just after blood sampling and after storage. As the results were similar before and after storage (the interassay coefficient of variation was 13%±2%) all remaining patients were tested after storage.
RBC adhesion was measured under static conditions using a radiometric technique as previously described. Human microvascular endothelial cells (HMEC-1 Biological Branch Products; CDC, Atlanta, Ga., USA) were cultured in MCDB-131 (Invitrogen, Grand Island, N.Y., USA) supplemented with 15% fetal calf serum (D. Dutscher, Brumath, France), endothelial growth factor (10 ng mL^−1) and hydrocortisone (1 μg mL^−1)(Invitrogen). […] Radioactivity in the lysate was measured in a gamma counter, and adhesion was then calculated as RBCs per square millimeter. […] Inhibition of RBC adhesion was assessed using HMEC preincubated with specific antibodies directed against PS receptor (polyclonal anti-PS receptor antibody, Sigma, St Louis, Mo., USA; polyclonal anti-human stabilin-2 antibody, R&D systems, Minneapolis, Minn., USA) or against human CD36 (monoclonal anti-CD36/SR-B3; R&D systems) or antihuman Brain-specific angiogenesis inhibitor-1 (BAI-1; Santa Cruz Biotechnology, Santa Cruz, Calif., USA). […]

[3] = tested on: adhesion of red blood cells (RBCs) from patients with central retinal vein occlusion to human microvascular endothelial cells (HMEC); test: RBC adhesion to HMEC under flow conditions (microslides, video-microscopy), inhibition by antibodies, peptide or annexin V; assay type: cell-based
Method: as §1
Adhesion of RBCs to HMEC under flow conditions was determined according to a previously published technique. Briefly, HMEC were cultured in gelatin (2%) coated glass capillaries (microslides; Camlab Ltd, Cambridge, UK) for 24 h. Microslides containing confluent HMEC were mounted on the stage of a video-microscope. The RBC suspension (hematocrit 0.5%) was perfused through the microslide at a flow rate equivalent to a wall shear stress of 0.03 Pa for […], followed by washout of non-adherent cells for 10 min. The wall shear stress was then increased stepwise (from 0.03 to 0.3 Pa) every 5 min. At each step, adherent RBCs were video-recorded in 10 consecutive fields (one field measures 0.1 mm^2), then were counted using a computerized image analysis system (Optimas Media Cybernetics, Bethesda, Md., USA; R & D Vision, Paris, France) and expressed as number of RBCs per mm^2. Inhibition of RBC adhesion was measured in the presence of the antibodies used in static conditions or after RBC incubation with annexin V.

Molecule | effect on RBC adhesion (in words) [1] | inhibition of CRVO RBC adhesion to HMEC [2] [%] | inhibition of CRVO RBC adhesion to HMEC ([3]; according to the shear stress) | inhibition of CRVO RBC adhesion to HMEC ([3]; shear stress 0.1 Pa) | inhibition of CRVO RBC adhesion to HMEC ([3]; shear stress 0.3 Pa)
NC(=O)NO [hydroxyurea] | reduced RBC adhesion |  |  |  | 
B1 |  | 35 | 68-74% | 75%±6% | 74%±8%
